# According to publication PMC5218472 (PLoS Biology, 2017):
# B1: PV: wild-type human IL-6R, cleavage site Pro-355/Val-356 (protein)
# chain: LAPRRCPAQEVARGVLTSLPGDSVTLTCPGVEPEDNATVHWVLRKPAAGSHPSRWAGMGRRLLLRSVQLHDSGNYSCYRAGRPAGTVHLLVDVPPEEPQLSCFRKSPLSNVVCEWGPRSTPSLTTKAVLLVRKFQNSPAEDFQEPCQYSQESQKFSCQLAVPEGDSSFYIVSMCVASSVGSKFSKTQTFQGCGILQPDPPANITVTAVARNPRWLSVTWQDPHSWNSSFYRLRFELRYRAERSKTFTTWMVKDLQHHCVIHDAWSGLRHVVQLRAQEEFGQGEWSEWSPEAMGTPWTESRSPPAENEVSTPMQALTTNKDDDNILFRDSANATSLPVQDSSSVPLPTFLVAGGSLAFGTLLCIAIVLRFKKTWKLRALKEGKTSMHPPYSLGQLVPERPRPTPVLVPLISPPVSPSSLGSDNTSSHNRPDARDPRSPYDISNTDYFFPR
# modifications: N-linked glycans at Asn-55, Asn-93, Asn-221, Asn-245 and Asn-350, O-linked glycan at Thr-352 (mapped on sIL-6R shed from transfected HEK293 cells)
# Experiments:
# [1] = test system: ADAM10; test: Ionomycin-induced ADAM10-mediated IL-6R ectodomain shedding in transiently transfected HEK293 cells, sIL-6R ELISA; format: cell-based, human; conditions: for sIL-6R shedding, Figure S4E, mean / sIL-6R shedding, Figure S4B, mean: normalised to PV Iono = 100; for sIL-6R shedding, Figure S4G, mean: normalised to PVQD Iono = 100
# Text: Analysis of IL-6R ectodomain shedding in transiently transfected HEK293 cells or stably transduced Ba/F3-gp130 cell lines by ADAM10 and ADAM17 has been described elsewhere. Analysis of IL-6R proteolysis by CG has been described previously.
# The sandwich ELISA, which detects sIL-6R as well as ds-sIL-6R (4-11/Baf227 antibodies) and can be used to quantify total sIL-6R serum levels, was described previously. To specifically detect ds-sIL-6R (either recombinant or in human serum), a similar approach was used (ds6R/Baf227). Both sandwich ELISAs were performed with streptavidin-horseradish peroxidase (R&D Systems, Minneapolis, Minnesota, US) and the peroxidase substrate BM blue POD (Roche, Mannheim, Germany). The enzymatic reaction was stopped by addition of 1.8 M sulfuric acid, and the absorbance read at 450 nm on a Tecan rainbow reader (Tecan, Crailsheim, Germany).
# Supplementary file pbio.2000080.s004.tif: S4 Fig Mutation of Val-356 is sufficient to block ADAM10-mediated proteolysis of the IL-6R and the Asp358Ala variant. (A) HEK293 cells were transiently transfected with Expression plasmids encoding the wildtype IL-6R (PV) or the double mutants (IE, DG) as indicated. Cells were either treated with 1 μM ionomycin for 1 h or DMSO as vehicle control. sIL-6R was precipitated from the supernatant with concanavalin A-covered Sepharose beads, and cells were lysed. Both were analyzed via Western blot, and β-actin served as loading control. One out of three experiments with similar outcome is shown. (B, C) The experiment was performed as described under (A), but sIL-6R generation was analyzed via ELISA. In (B), the amount of sIL-6R generated after ionomycin-stimulation of the wildtype IL-6R (PV) was set to 100%, and all other values were calculated accordingly. In (C), the amount of sIL-6R without stimulation was considered as constitutive shedding and set to 1 and the increase of sIL-6R was calculated. Data shown are the mean ± SD from at least three independent experiments (*p<0.05, ns = no significant difference). (D-F) HEK293 cells were transiently transfected with expression plasmids encoding the wildtype IL-6R (PV) or the single mutants (DV, IV, PE, PG) as indicated. The experiments were performed as described in (A) to (C). (G) ADAM10-mediated proteolysis of the IL-6R variants depicted in Fig 4I was analyzed as described in (B). (H) Equal numbers of Ba/F3-gp130-IL-6R_DG cells were incubated for 48 h with increasing amounts (0–100 ng/ml) of either IL-6 or Hyper-IL-6. One representative experiment out of three performed is shown (mean ± SD, biological triplicates). (TIF) Click here for additional data file.
# [2] = test system: Ba/F3-gp130-hIL-6R and Ba/F3-gp130-hIL-6R-4N cells; test: IL-6R internalization assay (cell-surface turnover, flow cytometry); format: cell-based; conditions: for IL-6R remaining at the cell surface (0 min = 100), mean: mean of 3
# Method: Fig 6 N- and O-linked glycosylation are dispensable for intracellular transport and signaling of the IL-6R. (A–G) Equal numbers of Ba/F3-gp130 cells were incubated for 48 h with increasing amounts (0–100 ng/ml) of either IL-6 or Hyper-IL-6. The stably transduced IL-6R variant is indicated above the diagram. One representative experiment out of three performed is shown (mean ± SD, biological triplicates). (H) Equal numbers of Ba/F3-gp130-hIL-6R and Ba/F3-gp130-hIL-6R-4N cells were labeled with an anti-IL-6R antibody and incubated at 37°C for the indicated time periods. The remaining cell-surface expression of the IL-6R was analyzed via flow cytometry. Data shown are the mean ± SD from three independent experiments.
# In order to analyze internalization of the IL-6R, 1 x 10^7 cells were washed in PBS, seeded onto a 10 cm dish in serum-free DMEM, and starved for 2 h at 37°C. Afterwards, cells were again washed with PBS, and the IL-6R was labeled with the 4–11 antibody diluted in FACS buffer (1% BSA in PBS). After 1 h incubation on ice, cells were washed and resuspended in 10 ml serum-free DMEM, seeded onto a 10 cm dish, and shifted back to 37°C. At the time points indicated (0–180 min), 1 ml of the cell suspension was taken from the dish, transferred into a 1.5 ml reaction tube, and kept on ice to inhibit further internalization of the IL-6R. After obtaining the last sample, the cells were washed in cold FACS buffer, and the remaining IL-6R on the cell surface was stained with an APC-conjugated anti-mouse mAb. The cells were washed again and analyzed by flow cytometry using the BD Biosciences FACS Canto II (Becton-Dickinson, Heidelberg, Germany).
molecule,measurement,setting,value
B1,"ratio of sIL-6R Iono / DMSO, Figure S4F, mean",[1]; mean of n = 3,3.48
same,"ratio of sIL-6R Iono / DMSO, Figure S4C, mean",[1]; mean of replicates,2.623
same,"sIL-6R shedding, Figure S4E, mean","[1]; treatment DMSO, mean of n = 3",35.7033
same,"sIL-6R shedding, Figure S4B, mean","[1]; treatment DMSO, mean of replicates",40.5833
same,"sIL-6R shedding, Figure S4G, mean","[1]; treatment DMSO, mean of n = 3",48.1333
same,"sIL-6R shedding, Figure S4E, mean","[1]; treatment Iono, mean of n = 3",100
same,"sIL-6R shedding, Figure S4B, mean","[1]; treatment Iono, mean of replicates",100
same,"sIL-6R shedding, Figure S4G, mean","[1]; treatment Iono, mean of n = 3",100
same,"IL-6R remaining at the cell surface (0 min = 100), mean","[2]; block 1 (wt), 15 min",79.6667
same,"IL-6R remaining at the cell surface (0 min = 100), mean","[2]; block 1 (wt), 30 min",59
same,"IL-6R remaining at the cell surface (0 min = 100), mean","[2]; block 1 (wt), 60 min",46
same,"IL-6R remaining at the cell surface (0 min = 100), mean","[2]; block 1 (wt), 90 min",35
same,"IL-6R remaining at the cell surface (0 min = 100), mean","[2]; block 1 (wt), 120 min",23.6667
same,"IL-6R remaining at the cell surface (0 min = 100), mean","[2]; block 1 (wt), 150 min",16.6667
same,"IL-6R remaining at the cell surface (0 min = 100), mean","[2]; block 1 (wt), 180 min",13.3333
same,"IL-6R remaining at the cell surface (0 min = 100), mean","[2]; block 2, 15 min",85.6667
same,"IL-6R remaining at the cell surface (0 min = 100), mean","[2]; block 2, 30 min",65
same,"IL-6R remaining at the cell surface (0 min = 100), mean","[2]; block 2, 60 min",49.3333
same,"IL-6R remaining at the cell surface (0 min = 100), mean","[2]; block 2, 90 min",45
same,"IL-6R remaining at the cell surface (0 min = 100), mean","[2]; block 2, 120 min",35.6667
same,"IL-6R remaining at the cell surface (0 min = 100), mean","[2]; block 2, 150 min",27.6667
same,"IL-6R remaining at the cell surface (0 min = 100), mean","[2]; block 2, 180 min",24.3333
same,t1/2 of IL-6R at the cell surface,"[2]; pulse-chase with 4-11 antibody, 37°C, flow cytometry, mean ± SD, n = 3",44.1 ± 8.1 min
